In a protein production outcome set (Wang et al. 2014):

assay: label from the status in PepcDB records

**Q.** Which protein production does the source give for “MSIGLSLTFGLYLLVLVGIGVYFFLRTETRRLTDYMLAGRDVGTWPLALSEVASVASGWTFFAWVGVGFTTGLHGLWFSMAMLVVVLFLYRYVAPTFRRQSEALDSQTVVDHLALVFRDSPWGPRIRWTATLAVVVFMASYIGAQIIAVGEAMETGLGLNYAVSVGAGGLAVALYTTLGGFDASVWTDFVQGLLVILAALALPLVAIAEIGGWGAFVTAVRAADPTLLSMTAGQTGTALALSVGSWLAFALGALGQPHGLMRFQAIRSERLLSRASVIALAFQALRLTVPLFIGMAGRVLYGSMNDPESAAMEMMVQLFPDWFAGLLLAGIIGAVLSTSDSMMLVTSADLTRLYETQLAGGVLPARMIRLGRGIVGVMALLGVGLAYWRPGTIFDIIEFAFVGLGATLGLPLAFLVLWPRTTGAGVFAAVAAGLGSAVGNLYLSPATFPILVWPITLTAFLGASYATAPSSPVTASSS” here?
**A.** failed

**Q.** Which protein production does the source give for “MSIIAFLSYVIMTSITPGPSNILMMNEAQRFGFTGSWRFSSGILAGFAVLGILSGAFTISLYNWIPVVEPYFKLAGACYLIYLALQVGFTKNKKQDSTEARSSFISGFIFQLINIKSILFFLTVMSAFVLPFNHSLKSTIYYLALAIVLGWLALLLWSGFGSVFKRVFAKHDRVFRVLMCLLLMYSAVSIFR” here?
**A.** failed

**Q.** For “MSIISLDTRVKVGNTDYALSELFELVDQQTSDYGTSLNALKQAVVSGDLTIIQQVLQNSAAALRSLASLQNTLEKVLTLDLADPAQPEHVFIVEDSRGATELKLYKSHYTIGKADSCDIRLHSIYASRQHATLVRFLTENGEVRYRLIDGDPETSRRSANGTYVNNRSITECDLKHYDQILFGADVKATYFYLSPQFRSLTGLQDPTVSLSPDSTTEFEA”, which protein production is on record?
**A.** failed

**Q.** For “MSILDTLKTPVIVAPMAGGPSTPALVNAAAEAGSLGFLAGGVMPLEQLKQELSEVKGVFGVNLFRPQTDAPKPSDIDELAGLLSSAFRQFGLDEPTVPTPDLSNGWEAKFEAVLAAKPAVFSCTFGIFSAEEFARIKATGIEAWVTVTNPEDALAAQKAGANALVVQGPEAGGHRSTWSIEVEPDERDLKTLLAAVKQAGVYLPLIAAGGLSTSADVAAILEAGASAASCGSAFLLSDEAGTSSLNREILDAAPALGLESVSSRAFSGRYARGVETRFTRSNEGLPPLYPYLNPMITSLRKVAGSAGNWDYAYCLVGVGLESIAKGSAKQILESLTPSALG”, which protein production is on record?
**A.** failed

**Q.** For “MSILVIGANGGVGSKLVSQLNEEHVDFTAGVRKEDQVKELENKGIKATLIDVEKNSINDLKNIFTDYDKVIFSVGSGGSTGADKTIIVDLDGAVKTIKASKEAGIKHYVMVSTYDSRREAFDASGDLKPYTIAKHYADDYLRTSDLNYTIVHPGSLTDDAGTGKIEADLYFDKAGSIPREDVATVLKEVVTSDGFNNQEFQILSGNHGVKDALKNYESLEHHHHHH”, which protein production is on record?
**A.** not failed

**Q.** With “MSINTKENIDAIFEKLESFLKSKTVIGEPIKIGETTIIPFIDITFGLGTGGGGGKDEKGNDGTGSGAGAGAKISATAVLVIKGEQVELLPIKKAGGLEKLLDMVPELEHHHHHH” as the sequence, how does the protein production read?
**A.** not failed

**Q.** For “MSIRIKLPDGSVREFEEEASIEDVAASISCGLEHAVAGKLNGKLVDLSTPLQDGALVEIVTRDSAEGQKIVREKSRGKGRIVALDAARGLAVIGMYLQHFALNETNGSIVSGNTTLLFVLCGGISYSIMAGRMMDRGMEPAAFRTRMLARAVFIDMIGYLLIMLNTPFGVILPAYAALFVLALVLIRRSTRVLVTTAAVLLAVSPPLMILGGSVLSGANLLGDIAGGPMSALALAPAFVAGMAIGRFDLTRMRTALSLVSSGAVMLIVSKLLGVFVLPWLSRSFEEWLVSVQGTAGAEPDQYAIWPHNVAPPLWHNLLSIAPHSASTFQTMLGLGAAFLVLGMVCLVPQKISAVLKPFAGVGRVALTMYAAQFVVIWALEISGAKYDIGAIPFGDLFVAAVATVTGWLIARLPTGPLETAMRRFDRAFSNLGPVTGPARLR”, which protein production is on record?
**A.** failed

**Q.** With “MSITYSAISFSGFSPKSVPFAIHSVTRRQFLNPNTFYRFGFSPSLQGSSIEFSLQLNSRVVLSKERRSLPLVVRNDRPQNEDLPKQYTRREKKPFPVPIVDLRRAARERVKNNKDKPKRPLPPPKNGMVVKSLVPLAYKVYNARIRLINNLHRLMKVVRVNACGWCNEIHVGPYGHPFKSCKGPNTSQRKGLHEWTNSVIEDVIVPLEAYHLFDRLGKRIRHDERFSIPRVPAVVELCIQGGVEIPEFPAKRRRKPIIRIGKSEFVDADETELPDPEPQPPPVPLLTELPVSEITPPSSEEETVSLAEETLQAWEEMRAGAKKLMRMYRVRVCGYCPEVHVGPTGHKAQNCGAFKHQQRNGQHGWQSAVLDDLIPPRYVWHVPDVNGPPMQRELRSFYGQAPAVVEICAQAGAVVPEHYRATMRLEVGIPSSVKEAEMVV” as the sequence, how does the protein production read?
**A.** failed

**Q.** With “MSIYDPNPDQSLARIDALEKELANLKASHNTLDIQNKILKGFISLTNVSAGRMLIKATLQKTMEASIHQTGAQLGSLFLLDGDGRVTESILARGATDQSQKKNIVGQVLDKGLAGWVRENKRTGLINDTTKDYRWLKLPDEPYQALSALGVPIVWGDELLGILTLMHSQVNHFTPACATAMEKTAELIALVLNNARIQTKHKQNETLIQQEDDLLNQAILWFPSIIFILDNQGVLLKCGGKYLAQIGLDPKESIGKSIYYLLPEANELKSLTSHALANNIIESVSVQMERVDHGTWFYDAWFSPILDNHGQVSNVVCMLLPA” as the sequence, how does the protein production read?
**A.** failed

**Q.** With “MSKCGVRARLLGLCTERASAWAMALIALVAGGLLTAALAFAAHTFYKQQLRQRFELLASERASRIAERFDEQQQRLDGLRRFFSFSSEITPREFDGYARPLLQRTLAYAWAPRVEAAQRAEFERLASAHTGPGYVIRDQDAQGQWRPASQRDHYFPVLYTQSSERPGLPYGLDLAGQSEPQAALARALAPALAPGSMAVSEPLALFDTQSAERGLLMVAPVFSDADPRGAAVGYVMALLSMRELVSDGRPVAVDDNLVVRITDPSGLQGPVVLFDSQNPVAPLALASNQLLRLADHHFQLSIQPSQAFAQANRSSAVMAVGLLGGLLSLLLSVLLYSLFSQRQRALALVAQRTAELQVSEQSLRGTHNQLRSVLDAATQVAIIATNLKGVVSTFNAGAERMLGYAASEAIGRLRLEDLVLPEELNLRAQALSLRFGRAIAGGQAMFAETVQEHGAEPGEWTLLRADGSQLVANMLVTAMLDEQGLWVGYLAICIDVTERRRVHEALAARDRLLEKLSAEVPGGIYQYRLDANGHSCFPYASMGLYDIYEIDLMQLREDASAVFERIHPDDLERVRRSVRYSAEHLSPWREEYRVCLPRAGLRWVRGEATPEVGEQGCTLWHGYLTDISDLKGVEEELRALSVTDSLTGIHNRRYFQERLKIELERAQRDGLPLAVIMLDIDHFKRINDRFGHAVGDRVLRSLCQRIAQRLRRTDVFCRLGGEEFMVLCPGSDANQARLLALELWQGVRNVPVEGVGQVTASFGVAGWRSGEGADALLLRADAGVYAAKQAGRDRVEGEPV” as the sequence, how does the protein production read?
**A.** failed

**Q.** For “MSKEDAWNMVTIYPAKQLRVDEYVGSLTPGKMADIVLWNAEPLSIYAKVTHAWVEGKRYFDREQDQLAQLEHHHHHH”, which protein production is on record?
**A.** failed

**Q.** Which protein production does the source give for “MSKEPIIKLDNIDVTFHQKKREINAVKDVTIHINQGDIYGIVGYSGAGKSTLVRVINLLQEPSAGKITIDDQVIYDNKVTLTSTQLREQRREIGMIFQHFNLMSQLTAEQNVAFALKHSGLSKEAKAAKVAKLLELVGLSDRAQNYPSQLSGGQKQRVAIARALANDPKILISDESTSALDPKTTKQILALLQDLNKKLGLTIVLITHEMQIVKDIANRVAVMQNGKLIEEGSVLDIFSHPRESLTQDFIKIATGIDEAMLKIEQQEVVKNLPVGSKLVQLKYAGHSTDEPLLNQIYKEFEVTANILYGNIEILDGIPVGEMVVILSGDEEKLRQACQAITDSQVQLTLLKEGGKA” here?
**A.** failed

**Q.** With “MSKFDGYFLRQLLVLCGFFAFVLVGVFWISKAVSLFDRLISSGQTAMVALEFTALTLPTLVRTVMPMAAFCATVYVTNRLNRESEMTVMLATGSSPFRLARPVILFGLVCAAMLATITLYLRPAAMLRLEARQAEVAGDMTAQLLNDGQFMHPVKGVTVYIGKIDRDGTLNDVYLSDRRAPERVVTYTSSKAFLARSGEQIALVMVEGTALQMETGRRTLSTTVFRDFSYDISALAKRDIERRQDIRGMPTLALATAFDGEGLAETYSRGEISEELQERLSWIGVSVAVTLIGFSTLMLGTFSRFGLWPQLIAAFAGLIALEGMRSTATAFVGSHPGLWWVQHAPALGGIALSILFLKLAGRPLRLRRYPDTGSV” as the sequence, how does the protein production read?
**A.** failed

**Q.** For “MSKHLCFTAFSSIALFLLCFSSWASAVAPAEINEARLVAQYNYSINILAMLLVGFGFLMVFVRRYGFSATTGTYLVVATGLPLYILLRANGIFGHALTPHSVDAVIYAEFAVATGLIAMGAVLGRLRVFQYALLALFIVPVYLLNEWLVLDNASGLTEGFQDSAGSIAIHAFGAYFGLGVSIALTTAAQRAQPIESDATSDRFSMLGSMVLWLFWPSFATAIVPFEQMPQTIVNTLLALCGATLATYFLSALFHKGKASIVDMANAALAGGVAIGSVCNIVGPVGAFVIGLLGGAISVVGFVFIQPMLESKAKTIDTCGVHNLHGLPGLLGGFSAILIVPGIAVAQLTGIGITLALALIGGVIAGALIKLTGTTKQAYEDSHEFIHLAGPEDEHKAERLVLEAKTEIQGLKNRIDAAVLSAKSEG”, which protein production is on record?
**A.** not failed

**Q.** With “MSKIADDQNFNDEEENFAKLFKKELEKEETLEKGTIKEGLVVSINENDGYAMVSVGGKTEGRLALNEITDEKGQLLYQKNDPIIVHVSEKGEHPSVSYKKAISQQKIQAKIEELGENYENAIIEGKIVGKNKGGYIVESQGVEYFLSRSHSSLKNDANHIGKRVKACIIRVDKENHSINISRKRFFEVNDKRQLEVSKELLEATEPVLGVVRQITPFGIFVEAKGIEGLVHYSEISHKGPVNPEKYYKEGDEVYVKAIAYDAEKRRLSLSIKATIEDPWEEIQDKLKPGYAIKVVVSNIEHYGVFVDIGNDIEGFLHVSEISWDKNVSHPNNYLSVGQEIDVKIIDIDPKNRRLRVSLKQLTNRPFDVFESKHQVGDVLEGKVATLTDFGAFLNLGGVDGLLHNHDAFWDKDKKCKDHYKIGDVIKVKILKINKKDKKISLSAKHLVTSPTEEFAQKHKTDSVIQGKVVSIKDFGVFINADGIDVLIKNEDLNPLKKDEIKIGQEITCVVVAIEKSNNKVRASVHRLERKKEKEELQAFNTSDDKMTLGDILKEKL” as the sequence, how does the protein production read?
**A.** failed

**Q.** Which protein production does the source give for “MSKICQITGKKAMVGNNVSHSKRRTKRVFDVNLFRKKFYWVEQDCWVVLRISAAGLRLINKIGLDAAIKRAAEKGFLNALEHHHHHH” here?
**A.** not failed

**Q.** For “MSKKQKSKYIVIFGCGRLGSLIANLASSSGHSVVVVDKNEYAFHRLNSEFSGFTVVGDAAEFETLKECGMEKADMVFAFTNDDSTNFFISMNARYMFNVENVIARVYDPEKIKIFEENGIKTICPAVLMIEKVKEFIIGSEED”, which protein production is on record?
**A.** not failed

**Q.** With “MSKKTDVVKEYTRIDSKRGLSITTGANRMKLFDRRVLELGRGEYGKLWNVIILGLLISFSYIVQGLLIAVILNGVFAGTPLHESRLYFAAVALLIVLRWIMIRENDRIAARTASNIAMSLRRRMYHKLYELGPGWIMTQKSGVIQATLVDGAEALQNYYGRFLPQVVVSIAAGISIVAILFYVDMTIGLVIGGMMIAALIQPLAIYKGVGKGIRIWFVAMPRLFAEYVDNIQGIVTLKSFNASQRQGKILYQRTNDLYDAEIGILRDEILWSVPPGLVAAICGTVAIIIGAIRMDAGALSAAGLLFVLLLVREALRPVTDLRQTIHFSFSGMGAAEGVLDILEATPLAAVTARPTPSSIPHSFAFEDVTFRYRKTDASAVENLSFKVEPGDKVALVGRSGSGKTTVTSLLMRYFDPQAGIIRLGGEDIRHIPADELHAMYSIVSQDTFLFHGTVRDNLLMAKPEASQEELERAARAAAAHKFIATLPDSYDTLIGERGVRLSGGERQRIAIARAILKDAPILILDEATSSVDVANETLIREAIAGLAHDRTTLLISHRLSAVRDADRIYVLEKGRLMEAGTHSKLVGCNGNYSALVRAEEECI” as the sequence, how does the protein production read?
**A.** failed

**Q.** For “MSKLAQIVQKLKKQGIEAAVLSDPVSINYLTGFYSDPHERLMFLFLFADQEPLLFLPELDALRAKSILDISVTGYLDFENPLEKIKTLLPKTNYSKIALEFDNLNVTKFKGLETIFSGQFTNLTPLINRMR”, which protein production is on record?
**A.** not failed
